The labels stand for the following.
B1: Nucleosome-remodeling factor subunit BPTF, residues 2862 to 2918; numbered along this chain, Q12830 (parent)
chain: TKKDTKLYCICKTPYDESKFYIGCDRCQNWYHGRCVGILQSEAELIDEYVCPQCQST
B2: Cold shock protein CspB, residues 1 to 66; numbered along this chain, P41016 (parent)
chain: MQRGKVKWFNNEKGYGFIEVEGGSDVFVHFTAIQGEGFKTLEEGQEVSFEIVQGNRGPQAANVVKL

Experimental findings from the Human Domainome abundance scans (Beltran et al. 2025) are described below.

± gives the uncertainty stated by the source.

The variants in one series derive from B1. Put plainly: abundance fitness (aPCA) (normalised: wild type 0, dead -1); higher = more abundant; growth selection in yeast, the domain comes from the species named. Particulars: Homo sapiens.
For the variant TKKFTKLYCICKTPYDESKFYIGCDRCQNWYHGRCVGILQSEAELIDEYVCPQCQST [D4F], the abundance fitness is -0.226 ± 0.077. Still for that read-out and setting: the result for TKKETKLYCICKTPYDESKFYIGCDRCQNWYHGRCVGILQSEAELIDEYVCPQCQST [D4E] reads -0.005 ± 0.1; that for TKKATKLYCICKTPYDESKFYIGCDRCQNWYHGRCVGILQSEAELIDEYVCPQCQST [D4A], -0.18 ± 0.062; that for TKKCTKLYCICKTPYDESKFYIGCDRCQNWYHGRCVGILQSEAELIDEYVCPQCQST [D4C], -0.316 ± 0.087. On the same count and under the same terms, the result for TKLDTKLYCICKTPYDESKFYIGCDRCQNWYHGRCVGILQSEAELIDEYVCPQCQST [K3L] reads -0.111 ± 0.073. As to TKNDTKLYCICKTPYDESKFYIGCDRCQNWYHGRCVGILQSEAELIDEYVCPQCQST [K3N], the abundance fitness was -0.379 ± 0.15. On to TKFDTKLYCICKTPYDESKFYIGCDRCQNWYHGRCVGILQSEAELIDEYVCPQCQST [K3F], for which the abundance fitness is -0.041 ± 0.11. On to TKWDTKLYCICKTPYDESKFYIGCDRCQNWYHGRCVGILQSEAELIDEYVCPQCQST [K3W], for which the abundance fitness was -0.629 ± 0.12. Consider TKMDTKLYCICKTPYDESKFYIGCDRCQNWYHGRCVGILQSEAELIDEYVCPQCQST [K3M], for which the abundance fitness is -0.152 ± 0.11. Regarding TKADTKLYCICKTPYDESKFYIGCDRCQNWYHGRCVGILQSEAELIDEYVCPQCQST [K3A], the abundance fitness is -0.146 ± 0.073.

With TKEDTKLYCICKTPYDESKFYIGCDRCQNWYHGRCVGILQSEAELIDEYVCPQCQST [K3E], the abundance fitness was 0.014 ± 0.12. On the same count and under the same terms, then TKYDTKLYCICKTPYDESKFYIGCDRCQNWYHGRCVGILQSEAELIDEYVCPQCQST [K3Y], with -0.273 ± 0.13. On the same count and under the same terms, then TKQDTKLYCICKTPYDESKFYIGCDRCQNWYHGRCVGILQSEAELIDEYVCPQCQST [K3Q], with -0.032 ± 0.14.

As to TKCDTKLYCICKTPYDESKFYIGCDRCQNWYHGRCVGILQSEAELIDEYVCPQCQST [K3C], the abundance fitness is -0.697 ± 0.15. In the case of TKIDTKLYCICKTPYDESKFYIGCDRCQNWYHGRCVGILQSEAELIDEYVCPQCQST [K3I], the abundance fitness was -0.057 ± 0.097. Same read-out and setting: the result for TKHDTKLYCICKTPYDESKFYIGCDRCQNWYHGRCVGILQSEAELIDEYVCPQCQST [K3H] reads -0.424 ± 0.16; that for TKVDTKLYCICKTPYDESKFYIGCDRCQNWYHGRCVGILQSEAELIDEYVCPQCQST [K3V], -0.009 ± 0.073. Still for that read-out and setting: the result for TKTDTKLYCICKTPYDESKFYIGCDRCQNWYHGRCVGILQSEAELIDEYVCPQCQST [K3T] reads 0.013 ± 0.084; that for TKDDTKLYCICKTPYDESKFYIGCDRCQNWYHGRCVGILQSEAELIDEYVCPQCQST [K3D], -0.097 ± 0.16; that for TKRDTKLYCICKTPYDESKFYIGCDRCQNWYHGRCVGILQSEAELIDEYVCPQCQST [K3R], -0.131 ± 0.068. For TKSDTKLYCICKTPYDESKFYIGCDRCQNWYHGRCVGILQSEAELIDEYVCPQCQST [K3S], the abundance fitness was 0.036 ± 0.078. In the case of TKGDTKLYCICKTPYDESKFYIGCDRCQNWYHGRCVGILQSEAELIDEYVCPQCQST [K3G], the abundance fitness was -0.148 ± 0.071.

In the case of VKKDTKLYCICKTPYDESKFYIGCDRCQNWYHGRCVGILQSEAELIDEYVCPQCQST [T1V], the abundance fitness is -0.177 ± 0.17. On to GKKDTKLYCICKTPYDESKFYIGCDRCQNWYHGRCVGILQSEAELIDEYVCPQCQST [T1G], for which the abundance fitness was -0.147 ± 0.15.

NKKDTKLYCICKTPYDESKFYIGCDRCQNWYHGRCVGILQSEAELIDEYVCPQCQST [T1N]: the abundance fitness was determined as 0.018 ± 0.22.

Take IKKDTKLYCICKTPYDESKFYIGCDRCQNWYHGRCVGILQSEAELIDEYVCPQCQST [T1I]: the abundance fitness was -0.132 ± 0.19. Same read-out and setting: then WKKDTKLYCICKTPYDESKFYIGCDRCQNWYHGRCVGILQSEAELIDEYVCPQCQST [T1W], with -0.152 ± 0.19; and PKKDTKLYCICKTPYDESKFYIGCDRCQNWYHGRCVGILQSEAELIDEYVCPQCQST [T1P], with -0.264 ± 0.18. Same read-out and setting: the result for MKKDTKLYCICKTPYDESKFYIGCDRCQNWYHGRCVGILQSEAELIDEYVCPQCQST [T1M] reads -0.13 ± 0.19. On to DKKDTKLYCICKTPYDESKFYIGCDRCQNWYHGRCVGILQSEAELIDEYVCPQCQST [T1D], for which the abundance fitness is -0.071 ± 0.34. The same measure, in the same setting: the result for HKKDTKLYCICKTPYDESKFYIGCDRCQNWYHGRCVGILQSEAELIDEYVCPQCQST [T1H] reads -0.277 ± 0.26; that for EKKDTKLYCICKTPYDESKFYIGCDRCQNWYHGRCVGILQSEAELIDEYVCPQCQST [T1E], -0.185 ± 0.28. Turning to SKKDTKLYCICKTPYDESKFYIGCDRCQNWYHGRCVGILQSEAELIDEYVCPQCQST [T1S], the abundance fitness was -0.104 ± 0.091. Same read-out and setting: then LKKDTKLYCICKTPYDESKFYIGCDRCQNWYHGRCVGILQSEAELIDEYVCPQCQST [T1L], with -0.256 ± 0.18; and KKKDTKLYCICKTPYDESKFYIGCDRCQNWYHGRCVGILQSEAELIDEYVCPQCQST [T1K], with -0.199 ± 0.16. The same measure, in the same setting: then AKKDTKLYCICKTPYDESKFYIGCDRCQNWYHGRCVGILQSEAELIDEYVCPQCQST [T1A], with -0.54 ± 0.29.

For the variant RKKDTKLYCICKTPYDESKFYIGCDRCQNWYHGRCVGILQSEAELIDEYVCPQCQST [T1R], the abundance fitness is -0.281 ± 0.15.

Variants of B2 are the subject of another series. Described as above. Particulars: Bacillus caldolyticus.
Take L66Y: the abundance fitness is -0.054 ± 0.12. The same measure, in the same setting: the result for L66E reads -0.01 ± 0.12. Consider L66A, for which the abundance fitness was -0.055 ± 0.065.

On to L66Q, for which the abundance fitness was determined as 0.021 ± 0.057.

L66M: the abundance fitness is -0.018 ± 0.057. On the same count and under the same terms, then L66G, with 0.005 ± 0.08; and L66C, with -0.067 ± 0.084; and L66R, with -0.018 ± 0.042. Same read-out and setting: then L66I, with -0.044 ± 0.083; and L66V, with 0.025 ± 0.063. On the same count and under the same terms, the result for L66F reads 0.033 ± 0.086; that for L66H, -0.214 ± 0.11.

On to L66P, for which the abundance fitness was -0.022 ± 0.043. The same measure, in the same setting: the result for L66S reads -0.016 ± 0.04; that for L66W, 0.004 ± 0.05; that for L66T, -0.023 ± 0.057. Take L66D: the abundance fitness is -0.101 ± 0.18.

K65H: the abundance fitness was found to be 0.014 ± 0.06.

Consider K65S, for which the abundance fitness is -0.015 ± 0.035. On the same count and under the same terms, then K65Y, with -0.13 ± 0.047. Same read-out and setting: then K65G, with 0.023 ± 0.074; and K65R, with 0.004 ± 0.044; and K65A, with 0.002 ± 0.051. Regarding K65D, the abundance fitness was -0.019 ± 0.082. Still for that read-out and setting: then K65E, with -0.03 ± 0.084; and K65Q, with -0.023 ± 0.06.

In the case of K65L, the abundance fitness was -0.052 ± 0.037. On the same count and under the same terms, then K65P, with 0.025 ± 0.064; and K65N, with -0.051 ± 0.057; and K65F, with -0.098 ± 0.05. Same read-out and setting: then K65C, with -0.035 ± 0.049; and K65M, with -0.078 ± 0.048. Same read-out and setting: then K65T, with -0.003 ± 0.055; and K65W, with -0.145 ± 0.055; and K65I, with 0.04 ± 0.076. On to K65V, for which the abundance fitness was -0.015 ± 0.056.
